This assay concerns the target human IL-23R (human) (UniProt Q5VWK5). The experiment in a line: BIAcore, antibody immobilized on CM5 chip. (In general: Surface plasmon resonance follows binding to a sensor surface in real time, without labels.)

The Kd is the constant that tells how readily two partners part at equilibrium.

Chain of human IL-23R (human) (Q5VWK5 24-353 L310P limits assumed): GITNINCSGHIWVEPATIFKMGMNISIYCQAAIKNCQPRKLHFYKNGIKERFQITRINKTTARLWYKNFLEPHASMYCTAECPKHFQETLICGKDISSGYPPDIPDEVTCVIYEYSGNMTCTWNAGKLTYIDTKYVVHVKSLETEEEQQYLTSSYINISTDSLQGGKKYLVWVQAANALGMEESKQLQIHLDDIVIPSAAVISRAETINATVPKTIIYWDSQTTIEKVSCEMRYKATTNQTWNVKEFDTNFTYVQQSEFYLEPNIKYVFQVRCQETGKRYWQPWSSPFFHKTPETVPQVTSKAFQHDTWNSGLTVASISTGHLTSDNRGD

B1: humanized 20D7 antibody with hu20D7-a heavy chain variable domain (antibody, part only; not given: unnamed light chain, V domains shown, part only)
VH: QVQLVQSGAEVKKPGASVKVSCKASGYTFTNYAMNWVRQAPGQGLEWMGWINTYTGEPTYNEKFKGRVTMTTDTSTSTAYMELRSLRSDDTAVYYCARGGGYDEDYFDYWGQGTLVTVSS
Regarding B1, the Kd was determined as 4.3 nM and the fold reduction of binding affinity against mouse 20D7 came out at 50 fold.

B2: humanized 20D7 antibody with hu20D7-b heavy chain variable domain (T72L) (antibody, part only; not given: unnamed light chain, V domains shown, part only)
VH: QVQLVQSGAEVKKPGASVKVSCKASGYTFTNYAMNWVRQAPGQGLEWMGWINTYTGEPTYSDDFKGRVTMTLDTSTSTAYMELRSLRSDDTAVYYCARGGGYDEDYFDYWGQGTLVTVSS
B2 came in with a dissociation constant (Kd) of 0.36 nM.

B3: humanized 20D7 antibody with hu20D7-c heavy chain variable domain (T72L, M70F) (antibody, part only; not given: unnamed light chain, V domains shown, part only)
VH: QVQLVQSGAEVKKPGASVKVSCKASGYTFTNYAMNWVRQAPGQGLEWMGWINTYTGEPTYSDDFKGRVTFTLDTSTSTAYMELRSLRSDDTAVYYCARGGGYDEDYFDYWGQGTLVTVSS
Molecule B3 gave an equilibrium dissociation constant (Kd) of 0.23 nM and a fold improvement of binding affinity against the simple humanization (hu20D7-a) of 20 fold.

These data come from patent US20130064817A1.
